From the Human Domainome abundance scans (Beltran et al. 2025) come the findings set out here.

± gives the uncertainty stated by the source.

B1: 1-phosphatidylinositol 4,5-bisphosphate phosphodiesterase gamma-2, residues 772 to 827; numbered along this chain, P16885 (parent)
chain: RTVKALYDYKAKRSDELSFCRGALIHNVSKEPGGWWKGDYGTRIQQYFPSNYVEDI
B2: E3 ubiquitin-protein ligase NEDD4-like, residues 539 to 589; numbered along this chain, Q96PU5 (parent)
chain: KTSLNPNDLGPLPPGWEERIHLDGRTFYIDHNSKITQWEDPRLQNPAITGP

The variants in the first series derive from B1. The series is described as follows: abundance fitness (aPCA) (normalised: wild type 0, dead -1); higher = more abundant; growth selection in yeast, the domain comes from the species named. The note with it: Homo sapiens.
Take RTVKALYDYKAKRSDELSFCRGALIHNVSKEPGGWWKGDYGTRIQQYFPSNIVEDI: the abundance fitness was -0.077 ± 0.16.
Consider RTVKALYDYKAKRSDELSFCRGALIHNVSKEPGGWWKGDYGTRIQQYFPSNQVEDI, for which the abundance fitness was -0.281 ± 0.1.
With RTVKALYDYKAKRSDELSFCRGALIHNVSKEPGGWWKGDYGTRIQQYFPSNSVEDI, the abundance fitness is -0.304 ± 0.066.
With RTVKALYDYKAKRSDELSFCRGALIHNVSKEPGGWWKGDYGTRIQQYFPSNTVEDI, the abundance fitness was determined as 0.01 ± 0.094.
For RTVKALYDYKAKRSDELSFCRGALIHNVSKEPGGWWKGDYGTRIQQYFPSNCVEDI, the abundance fitness was -0.086 ± 0.064.
With RTVKALYDYKAKRSDELSFCRGALIHNVSKEPGGWWKGDYGTRIQQYFPSNLVEDI, the abundance fitness turned out to be 0.026 ± 0.049.
Consider RTVKALYDYKAKRSDELSFCRGALIHNVSKEPGGWWKGDYGTRIQQYFPSNPVEDI, for which the abundance fitness was -0.892 ± 0.29.
For the variant RTVKALYDYKAKRSDELSFCRGALIHNVSKEPGGWWKGDYGTRIQQYFPSNWVEDI, the abundance fitness was -0.327 ± 0.089.
RTVKALYDYKAKRSDELSFCRGALIHNVSKEPGGWWKGDYGTRIQQYFPSNRVEDI: the abundance fitness was -0.295 ± 0.049.
With RTVKALYDYKAKRSDELSFCRGALIHNVSKEPGGWWKGDYGTRIQQYFPSNKVEDI, the abundance fitness was -0.138 ± 0.11.
As to RTVKALYDYKAKRSDELSFCRGALIHNVSKEPGGWWKGDYGTRIQQYFPSNAVEDI, the abundance fitness was -0.092 ± 0.091.
For the variant RTVKALYDYKAKRSDELSFCRGALIHNVSKEPGGWWKGDYGTRIQQYFPSNGVEDI, the abundance fitness was -0.787 ± 0.11.
In the case of RTVKALYDYKAKRSDELSFCRGALIHNVSKEPGGWWKGDYGTRIQQYFPSNDVEDI, the abundance fitness is -0.98 ± 0.35.
For RTVKALYDYKAKRSDELSFCRGALIHNVSKEPGGWWKGDYGTRIQQYFPSNMVEDI, the abundance fitness was determined as 0.045 ± 0.071.
Turning to RTVKALYDYKAKRSDELSFCRGALIHNVSKEPGGWWKGDYGTRIQQYFPSNFVEDI, the abundance fitness was determined as 0.022 ± 0.081.
RTVKALYDYKAKRSDELSFCRGALIHNVSKEPGGWWKGDYGTRIQQYFPSNEVEDI: the abundance fitness was -0.943 ± 0.47.
For RTVKALYDYKAKRSDELSFCRGALIHNVSKEPGGWWKGDYGTRIQQYFPSNNVEDI, the abundance fitness is -0.605 ± 0.21.
Consider RTVKALYDYKAKRSDELSFCRGALIHNVSKEPGGWWKGDYGTRIQQYFPSNHVEDI, for which the abundance fitness was -0.222 ± 0.097.
Still for that read-out and setting: the same measure for RTVKALYDYKAKRSDELSFCRGALIHNVSKEPGGWWKGDYGTRIQQYFPSNYVDDI: -0.291 ± 0.21; for RTVKALYDYKAKRSDELSFCRGALIHNVSKEPGGWWKGDYGTRIQQYFPSNYVCDI: -0.197 ± 0.094.
Still for that read-out and setting: the figure for RTVKALYDYKAKRSDELSFCRGALIHNVSKEPGGWWKGDYGTRIQQYFPSNYVLDI is -0.434 ± 0.05; for RTVKALYDYKAKRSDELSFCRGALIHNVSKEPGGWWKGDYGTRIQQYFPSNYVQDI it is -0.392 ± 0.12; for RTVKALYDYKAKRSDELSFCRGALIHNVSKEPGGWWKGDYGTRIQQYFPSNYVFDI it is -0.04 ± 0.12.
With RTVKALYDYKAKRSDELSFCRGALIHNVSKEPGGWWKGDYGTRIQQYFPSNYVWDI, the abundance fitness is -0.55 ± 0.055.
On to RTVKALYDYKAKRSDELSFCRGALIHNVSKEPGGWWKGDYGTRIQQYFPSNYVGDI, for which the abundance fitness is -0.276 ± 0.055.
For the variant RTVKALYDYKAKRSDELSFCRGALIHNVSKEPGGWWKGDYGTRIQQYFPSNYVYDI, the abundance fitness was -0.38 ± 0.15.
On to RTVKALYDYKAKRSDELSFCRGALIHNVSKEPGGWWKGDYGTRIQQYFPSNYVMDI, for which the abundance fitness was -0.316 ± 0.17.
Consider RTVKALYDYKAKRSDELSFCRGALIHNVSKEPGGWWKGDYGTRIQQYFPSNYVHDI, for which the abundance fitness was -0.272 ± 0.082.
The same measure, in the same setting: the figure for RTVKALYDYKAKRSDELSFCRGALIHNVSKEPGGWWKGDYGTRIQQYFPSNYVADI is -0.119 ± 0.053; for RTVKALYDYKAKRSDELSFCRGALIHNVSKEPGGWWKGDYGTRIQQYFPSNYVTDI it is -0.256 ± 0.067; for RTVKALYDYKAKRSDELSFCRGALIHNVSKEPGGWWKGDYGTRIQQYFPSNYVVDI it is -0.244 ± 0.061.
RTVKALYDYKAKRSDELSFCRGALIHNVSKEPGGWWKGDYGTRIQQYFPSNYVIDI: the abundance fitness is -0.353 ± 0.14.
In the case of RTVKALYDYKAKRSDELSFCRGALIHNVSKEPGGWWKGDYGTRIQQYFPSNYVNDI, the abundance fitness is -0.196 ± 0.17.
For RTVKALYDYKAKRSDELSFCRGALIHNVSKEPGGWWKGDYGTRIQQYFPSNYVRDI, the abundance fitness was -0.125 ± 0.045.
As to RTVKALYDYKAKRSDELSFCRGALIHNVSKEPGGWWKGDYGTRIQQYFPSNYHEDI, the abundance fitness is -0.947 ± 0.34.
On to RTVKALYDYKAKRSDELSFCRGALIHNVSKEPGGWWKGDYGTRIQQYFPSNYLEDI, for which the abundance fitness was -0.876 ± 0.12.
As to RTVKALYDYKAKRSDELSFCRGALIHNVSKEPGGWWKGDYGTRIQQYFPSNYTEDI, the abundance fitness was -0.177 ± 0.091.
Still for that read-out and setting: the figure for RTVKALYDYKAKRSDELSFCRGALIHNVSKEPGGWWKGDYGTRIQQYFPSNYEEDI is -0.934 ± 0.28; for RTVKALYDYKAKRSDELSFCRGALIHNVSKEPGGWWKGDYGTRIQQYFPSNYGEDI it is -0.923 ± 0.073.
Take RTVKALYDYKAKRSDELSFCRGALIHNVSKEPGGWWKGDYGTRIQQYFPSNYKEDI: the abundance fitness is -0.979 ± 0.15.
Take RTVKALYDYKAKRSDELSFCRGALIHNVSKEPGGWWKGDYGTRIQQYFPSNYFEDI: the abundance fitness was -0.803 ± 0.37.
On to RTVKALYDYKAKRSDELSFCRGALIHNVSKEPGGWWKGDYGTRIQQYFPSNYAEDI, for which the abundance fitness was -0.442 ± 0.093.
For the variant RTVKALYDYKAKRSDELSFCRGALIHNVSKEPGGWWKGDYGTRIQQYFPSNYDEDI, the abundance fitness is -0.823 ± 0.25.
On the same count and under the same terms, the same measure for RTVKALYDYKAKRSDELSFCRGALIHNVSKEPGGWWKGDYGTRIQQYFPSNYQEDI: -0.731 ± 0.35.
Regarding RTVKALYDYKAKRSDELSFCRGALIHNVSKEPGGWWKGDYGTRIQQYFPSNYREDI, the abundance fitness is -0.836 ± 0.12.
For RTVKALYDYKAKRSDELSFCRGALIHNVSKEPGGWWKGDYGTRIQQYFPSNYPEDI, the abundance fitness was -1.02 ± 0.32.
Take RTVKALYDYKAKRSDELSFCRGALIHNVSKEPGGWWKGDYGTRIQQYFPSNYMEDI: the abundance fitness was -0.731 ± 0.22.
For RTVKALYDYKAKRSDELSFCRGALIHNVSKEPGGWWKGDYGTRIQQYFPSSYVEDI, the abundance fitness is 0.067 ± 0.059.
Turning to RTVKALYDYKAKRSDELSFCRGALIHNVSKEPGGWWKGDYGTRIQQYFPSTYVEDI, the abundance fitness was -0.025 ± 0.045.
As to RTVKALYDYKAKRSDELSFCRGALIHNVSKEPGGWWKGDYGTRIQQYFPSVYVEDI, the abundance fitness is -0.134 ± 0.076.
With RTVKALYDYKAKRSDELSFCRGALIHNVSKEPGGWWKGDYGTRIQQYFPSYYVEDI, the abundance fitness was -0.155 ± 0.12.
Regarding RTVKALYDYKAKRSDELSFCRGALIHNVSKEPGGWWKGDYGTRIQQYFPSRYVEDI, the abundance fitness was -0.057 ± 0.048.
For RTVKALYDYKAKRSDELSFCRGALIHNVSKEPGGWWKGDYGTRIQQYFPSWYVEDI, the abundance fitness was -0.022 ± 0.054.
As for RTVKALYDYKAKRSDELSFCRGALIHNVSKEPGGWWKGDYGTRIQQYFPSNYVEHI, the abundance fitness was -0.213 ± 0.1.
Take RTVKALYDYKAKRSDELSFCRGALIHNVSKEPGGWWKGDYGTRIQQYFPSNYVEFI: the abundance fitness is -0.202 ± 0.09.
RTVKALYDYKAKRSDELSFCRGALIHNVSKEPGGWWKGDYGTRIQQYFPSNYVEYI: the abundance fitness was -0.287 ± 0.15.
For RTVKALYDYKAKRSDELSFCRGALIHNVSKEPGGWWKGDYGTRIQQYFPSNYVEVI, the abundance fitness is -0.238 ± 0.06.
Still for that read-out and setting: the figure for RTVKALYDYKAKRSDELSFCRGALIHNVSKEPGGWWKGDYGTRIQQYFPSNYVEMI is 0.086 ± 0.14; for RTVKALYDYKAKRSDELSFCRGALIHNVSKEPGGWWKGDYGTRIQQYFPSNYVEPI it is -0.022 ± 0.092.
As to RTVKALYDYKAKRSDELSFCRGALIHNVSKEPGGWWKGDYGTRIQQYFPSNYVESI, the abundance fitness is -0.216 ± 0.081.
RTVKALYDYKAKRSDELSFCRGALIHNVSKEPGGWWKGDYGTRIQQYFPSNYVELI: the abundance fitness was -0.448 ± 0.12.
Regarding RTVKALYDYKAKRSDELSFCRGALIHNVSKEPGGWWKGDYGTRIQQYFPSNYVEAI, the abundance fitness was -0.114 ± 0.069.
With RTVKALYDYKAKRSDELSFCRGALIHNVSKEPGGWWKGDYGTRIQQYFPSNYVEQI, the abundance fitness is -0.281 ± 0.12.
The same measure, in the same setting: the same measure for RTVKALYDYKAKRSDELSFCRGALIHNVSKEPGGWWKGDYGTRIQQYFPSNYVECI: -0.139 ± 0.049; for RTVKALYDYKAKRSDELSFCRGALIHNVSKEPGGWWKGDYGTRIQQYFPSNYVENI: -0.033 ± 0.065.
Consider RTVKALYDYKAKRSDELSFCRGALIHNVSKEPGGWWKGDYGTRIQQYFPSNYVEGI, for which the abundance fitness is -0.314 ± 0.074.
As to RTVKALYDYKAKRSDELSFCRGALIHNVSKEPGGWWKGDYGTRIQQYFPSNYVEII, the abundance fitness is -0.365 ± 0.29.
As to RTVKALYDYKAKRSDELSFCRGALIHNVSKEPGGWWKGDYGTRIQQYFPSNYVEEI, the abundance fitness worked out at 0.065 ± 0.089.

Variants of B2 are the subject of the next series. Described as above. The note with it: Homo sapiens.
For the variant N5A, the abundance fitness was -0.167 ± 0.052.
Consider N5W, for which the abundance fitness was -0.538 ± 0.067.
Take N5L: the abundance fitness was -0.212 ± 0.055.
With N5M, the abundance fitness was determined as 0.01 ± 0.087.
Regarding N5G, the abundance fitness was -0.175 ± 0.063.
N5F: the abundance fitness was -0.135 ± 0.054.
On the same count and under the same terms, the same measure for N5S: -0.123 ± 0.049; for N5E: 0.019 ± 0.051; for N5D: -0.407 ± 0.054.
As to N5C, the abundance fitness is -0.04 ± 0.08.
On to N5R, for which the abundance fitness is -0.293 ± 0.042.
On to N5H, for which the abundance fitness stood at 0.008 ± 0.096.
